{"source": "patent US20170114130A1", "about": "(University of California, published 2017)", "molecules": {"B1": {"name": "recombinant IL-2Rα, biotin labeled (receptor, UniProt P01589 22-240, looked up)", "chain": "ELCDDDPPEIPHATFKAMAYKEGTMLNCECKRGFRRIKSGSLYMLCTGNSSHSSWDNQCQCTSSATRNTTKQVTPQPEEQKERKTTEMQSPMQPVDQASLPGHCREPPPWENEATERIYHFVVGQMVYYQCVQGYRALHRGPAESVCKMTHGKTRWTQPQLICTGEMETSQFPGEEKPQASPEGRPESETSCLVTTTDFQIQTEMAATMETSIFTTEYQ", "modifications": "biotin labeled (site not stated)", "notes": "also called IL-2α; IL-2a"}, "B2": {"name": "recombinant IL-2Rβ, biotin labeled (receptor, UniProt P14784 27-240, looked up)", "chain": "AVNGTSQFTCFYNSRANISCVWSQDGALQDTSCQVHAWPDRRRWNQTCELLPVSQASWACNLILGAPDSQKLTTVDIVTLRVLCREGVRWRVMAIQDFKPFENLRLMAPISLQVVHVETHRCNISWEISQASHYFERHLEFEARTLSPGHTWEEAPLLTLKQKQEWICLETLTPDTQYEFQVRVKPLQGEFTTWSPWSQPLAFRTKPAALGKDT", "modifications": "biotin labeled (site not stated)", "notes": "also called CD122"}}, "key": {"[1]": {"biological_target": "human IL-2 (recombinant IL-2, Humanzyme) (human) (UniProt P60568)", "sequence (P60568 21-153 limits assumed)": "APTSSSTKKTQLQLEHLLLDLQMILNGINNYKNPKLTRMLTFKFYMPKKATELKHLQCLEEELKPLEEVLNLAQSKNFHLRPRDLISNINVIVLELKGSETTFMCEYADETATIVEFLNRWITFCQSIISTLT", "test": "SPR (Biacore T200), antibody captured on anti-mouse IgG, IL-2 injected; calculated with the assumed off-rate limit"}, "[2]": {"biological_target": "human IL-2 (recombinant IL-2, Humanzyme) (human) (UniProt P60568)", "test": "SPR, human IL-2; the value repeats Table 3 (assumed off-rate limit)"}, "[3]": {"biological_target": "recombinant cynomolgus monkey (Macaca fascicularis) IL-2 (cynomolgus monkey (Macaca fascicularis)) (UniProt Q29615)", "sequence (Q29615 21-154 limits assumed)": "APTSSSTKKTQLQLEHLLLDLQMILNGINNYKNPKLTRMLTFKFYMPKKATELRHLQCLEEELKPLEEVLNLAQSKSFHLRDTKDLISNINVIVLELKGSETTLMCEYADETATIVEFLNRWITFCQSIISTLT", "test": "SPR as in Example 1, cynomolgus IL-2 1-100 nM, 1:1 Langmuir or steady-state fit"}, "[4]": {"biological_target": "human IL-2 (recombinant IL-2, Humanzyme) (human) (UniProt P60568)", "test": "SPR (Biacore T200), antibody captured on anti-mouse IgG, IL-2 injected, 25 C, 1:1 Langmuir fit"}, "[5]": {"biological_target": "human IL-2 (recombinant IL-2, Humanzyme) (human) (UniProt P60568)", "test": "SPR (Biacore T200), antibody captured on anti-mouse IgG, IL-2 injected; off-rate outside the specifications of the instrument, assumed limit"}, "[6]": {"biological_target": "T1, IL-2/F5.1.11 Fab complex (human, UniProt P60568 21-153)", "T1 construct": "also called F5.1.11/IL-2", "T1 sequence (VH, as listed by the source limits assumed, chain 1 of 3)": "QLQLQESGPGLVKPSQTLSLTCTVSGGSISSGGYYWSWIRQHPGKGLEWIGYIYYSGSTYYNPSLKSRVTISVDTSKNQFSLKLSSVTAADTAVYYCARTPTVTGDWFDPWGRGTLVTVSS", "T1 sequence (VL, as listed by the source limits assumed, chain 2 of 3)": "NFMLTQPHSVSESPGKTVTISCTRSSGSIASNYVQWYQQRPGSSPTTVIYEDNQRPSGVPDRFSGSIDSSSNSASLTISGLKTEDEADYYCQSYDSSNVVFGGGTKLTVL", "T1 sequence (P60568 21-153 limits assumed, chain 3 of 3)": "as the sequence (P60568 21-153 limits assumed) above", "test": "SPR (Biacore T200), 1-500 nM IL-2 pre-complexed with excess Fab over biotinylated IL-2Rα, equilibrium analysis", "protocol": "Experiments were performed at 25° C. using a 10 μL/minute flow rate in 10 mM HEPES (pH7.4), 150 mM NaCl and 0.005% v/v Surfactant P20 buffer. […] Data was background subtracted using the adjacent control flow cell and buffer only injections. The affinity of the interaction was calculated from concentration-response relationship at equilibrium."}, "[7]": {"biological_target": "T2, d1C7/IL-2 complex (human, UniProt P60568 21-153)", "T2 construct": "Non-covalent complex: IL-2 (333 nM) pre-incubated with d1C7 IgG (1000 nM) for at least 20 minutes; also called clone d1C7/IL-2 complex", "T2 sequence (VH, as listed by the source limits assumed, chain 1 of 3)": "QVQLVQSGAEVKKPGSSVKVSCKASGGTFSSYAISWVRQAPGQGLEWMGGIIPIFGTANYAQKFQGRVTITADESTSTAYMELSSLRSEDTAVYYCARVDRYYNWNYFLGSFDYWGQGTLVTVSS", "T2 sequence (VL, as listed by the source limits assumed, chain 2 of 3)": "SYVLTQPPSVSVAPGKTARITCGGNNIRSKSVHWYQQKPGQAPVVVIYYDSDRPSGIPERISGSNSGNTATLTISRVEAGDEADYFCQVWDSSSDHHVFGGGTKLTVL", "T2 sequence (P60568 21-153 limits assumed, chain 3 of 3)": "as the sequence (P60568 21-153 limits assumed) above", "test": "SPR (Biacore T200), complex injected over biotinylated receptor on streptavidin chip", "protocol": "Experiments were performed at 25° C. using a 10 μL/minute flow rate in 10 mM HEPES (pH 7.4), 150 mM NaCl and 0.005% v/v Surfactant P20 buffer. […] Data was background subtracted using the adjacent control flow cell and buffer only injections."}}, "data": [{"molecule": "mouse anti-human IL-2 clone 5344 (clone 5344.111, BD Biosciences) (antibody)", "values": [{"measurement": "Kd", "setting": "[1]", "result": "< 0.05", "unit": "nM"}, {"measurement": "Kd", "setting": "[2]", "result": "< 0.05", "unit": "nM"}, {"measurement": "Kd", "setting": "[3]", "result": "> 50", "unit": "nM"}, {"measurement": "kon", "setting": "[4]", "result": "1.02e+06", "unit": "M⁻¹ s⁻¹"}, {"measurement": "koff", "setting": "[5]", "result": "< 5e-05", "unit": "s⁻¹"}]}, {"molecule": "B1", "values": [{"measurement": "Kd", "setting": "[6]", "result": 70.1, "unit": "nM"}]}, {"molecule": "B2", "values": [{"measurement": "binding result", "setting": "[7]", "result": "no binding (tested: IL-2 333 nM with IgG 1000 nM)"}]}]}
